Laboratory results published in US10907134B2, “Mutated genes for the catalytic protein of oplophorus luciferase and use thereof” (JNC CORPORATION, priority 2013, dated 2021).

Key:
CHO-K1 cells = assay: Luminescence activity of KAZ mutants expressed in animal culture cells with signal peptide of Gaussia luciferase for secretion; assay type: cell-based, Chinese hamster; settings: pcDNA3-GLsp- vectors; for Relative Luminescence Activity (Imax) (%) Cell Extracts / Relative Luminescence Activity (Imax) (%) Culture Medium: Table 5, CHO-K1, 48 hours, 0.5 μg coelenterazine; for Relative Luminescence Activity (Imax) (%) Cell Extracts: 5 μL cell extracts; for Relative Luminescence Activity (Imax) (%) Culture Medium: 5 μL culture medium; for Relative Luminescence Activity (%, Imax) Cell Extracts / Relative Luminescence Activity (%, Imax) Culture Medium: Table 11, CHO-K1, coelenterazine
Procedure, shortened: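 CHO-K1 cells were transfected with the KAZ mutant plasmid plus an internal standard vector. After 48 h, culture medium and sonicated cell extracts were collected. 5 μL of each was added to 0.5 μg coelenterazine in 30 mM Tris-HCl pH 7.6, 10 mM EDTA, and luminescence was read for 60 s, with maximum intensity (Imax) expressed as a percentage.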

[1] = Luminescence activity of KAZ mutants (pCold II, E. coli) in supernatant and precipitate of crude enzyme solution; assay type: biochemical; settings: for Relative Luminescence Activity (Imax) Precipitate / Relative Luminescence Activity (Imax) Supernatant / Luminescence activity in the supernatants, fold higher as compared to the wild KAZ: pCold II; for Relative Luminescence Activity (Imax) Precipitate / Relative Luminescence Activity (Imax) Supernatant: E. coli BL21, 60 seconds; for Relative Luminescence Activity (Imax) Precipitate: 5 μL precipitate; for Relative Luminescence Activity (Imax) Supernatant: 5 μL supernatant; for Luminescence activity in the supernatants, fold higher as compared to the wild KAZ: supernatant, coelenterazine (Table 8)

B1: KAZ-A54I: KAZ with single amino acid substitution A54I, SEQ ID NO: 6 (protein)
chain: FTLADFVGDWQQTAGYNQDQVLEQGGLSSLFQALGVSVTPIQKVVLSGENGLKIDIHVIIPYEGLSGFQMGLIEMIFKVVYPVDDHHFKIILHYGTLVIDGVTPNMIDYFGRPYPGIAVFDGKQITVTGTLWNGNKIYDERLINPDGSLLFRVTINGVTGWRLCENILA
- Relative Luminescence Activity (Imax) (%) Cell Extracts (CHO-K1 cells): 2.4%
- Relative Luminescence Activity (Imax) (%) Culture Medium (CHO-K1 cells): less than 0.01%
- Relative Luminescence Activity (Imax) Precipitate ([1]; Table 3, 0.5 μg coelenterazine): 13
- Relative Luminescence Activity (Imax) Supernatant ([1]; Table 3, 0.5 μg coelenterazine): 150
- Relative Luminescence Activity (Imax) Precipitate ([1]; Table 8, coelenterazine): 13
- Relative Luminescence Activity (Imax) Supernatant ([1]; Table 8, coelenterazine): 151
- Luminescence activity relative to that of dnKAZ ([1]; pCold II crude enzyme solution, coelenterazine): approximately 1/12

B2: KAZ-Y138I: KAZ with single amino acid substitution Y138I, SEQ ID NO: 8 (protein)
chain: FTLADFVGDWQQTAGYNQDQVLEQGGLSSLFQALGVSVTPIQKVVLSGENGLKADIHVIIPYEGLSGFQMGLIEMIFKVVYPVDDHHFKIILHYGTLVIDGVTPNMIDYFGRPYPGIAVFDGKQITVTGTLWNGNKIIDERLINPDGSLLFRVTINGVTGWRLCENILA
- Relative Luminescence Activity (Imax) (%) Cell Extracts (CHO-K1 cells): 1.0%
- Relative Luminescence Activity (Imax) (%) Culture Medium (CHO-K1 cells): less than 0.01%
- Relative Luminescence Activity (Imax) Precipitate ([1]; Table 3, 0.5 μg coelenterazine): 1.4
- Relative Luminescence Activity (Imax) Supernatant ([1]; Table 3, 0.5 μg coelenterazine): 32
- Relative Luminescence Activity (Imax) Precipitate ([1]; Table 8, coelenterazine): 1.4
- Relative Luminescence Activity (Imax) Supernatant ([1]; Table 8, coelenterazine): 32

B3: KAZ-V44I-A54I-Y138I: KAZ mutant with three amino acid substitutions V44I, A54I and Y138I, SEQ ID NO: 16 (protein)
chain: FTLADFVGDWQQTAGYNQDQVLEQGGLSSLFQALGVSVTPIQKIVLSGENGLKIDIHVIIPYEGLSGFQMGLIEMIFKVVYPVDDHHFKIILHYGTLVIDGVTPNMIDYFGRPYPGIAVFDGKQITVTGTLWNGNKIIDERLINPDGSLLFRVTINGVTGWRLCENILA
- Relative Luminescence Activity (%, Imax) Cell Extracts (CHO-K1 cells): 16.2%
- Relative Luminescence Activity (%, Imax) Culture Medium (CHO-K1 cells): 1.7%
- Relative Luminescence Activity (Imax) Precipitate ([1]; Table 8, coelenterazine): 40
- Relative Luminescence Activity (Imax) Supernatant ([1]; Table 8, coelenterazine): 1,730

B4: KAZ-A54I-Y138I: KAZ mutant with two amino acid substitutions A54I and Y138I, SEQ ID NO: 14 (protein)
chain: FTLADFVGDWQQTAGYNQDQVLEQGGLSSLFQALGVSVTPIQKVVLSGENGLKIDIHVIIPYEGLSGFQMGLIEMIFKVVYPVDDHHFKIILHYGTLVIDGVTPNMIDYFGRPYPGIAVFDGKQITVTGTLWNGNKIIDERLINPDGSLLFRVTINGVTGWRLCENILA
- Relative Luminescence Activity (%, Imax) Cell Extracts (CHO-K1 cells): 16.0%
- Relative Luminescence Activity (%, Imax) Culture Medium (CHO-K1 cells): 0.03%
- Relative Luminescence Activity (Imax) Precipitate ([1]; Table 8, coelenterazine): 21
- Relative Luminescence Activity (Imax) Supernatant ([1]; Table 8, coelenterazine): 982
- Luminescence activity in the supernatants, fold higher as compared to the wild KAZ [1]: 982 fold

B5: KAZ-V44I: KAZ with single amino acid substitution V44I, SEQ ID NO: 4 (protein)
chain: FTLADFVGDWQQTAGYNQDQVLEQGGLSSLFQALGVSVTPIQKIVLSGENGLKADIHVIIPYEGLSGFQMGLIEMIFKVVYPVDDHHFKIILHYGTLVIDGVTPNMIDYFGRPYPGIAVFDGKQITVTGTLWNGNKIYDERLINPDGSLLFRVTINGVTGWRLCENILA
- Relative Luminescence Activity (Imax) (%) Cell Extracts (CHO-K1 cells): 0.7%
- Relative Luminescence Activity (Imax) (%) Culture Medium (CHO-K1 cells): less than 0.01%
- Relative Luminescence Activity (Imax) Precipitate ([1]; Table 3, 0.5 μg coelenterazine): 0.6
- Relative Luminescence Activity (Imax) Supernatant ([1]; Table 3, 0.5 μg coelenterazine): 6.5
- Relative Luminescence Activity (Imax) Precipitate ([1]; Table 8, coelenterazine): 0.6
- Relative Luminescence Activity (Imax) Supernatant ([1]; Table 8, coelenterazine): 6.5

B6: KAZ-V44I-Y138I: KAZ mutant with two amino acid substitutions V44I and Y138I, SEQ ID NO: 12 (protein)
chain: FTLADFVGDWQQTAGYNQDQVLEQGGLSSLFQALGVSVTPIQKIVLSGENGLKADIHVIIPYEGLSGFQMGLIEMIFKVVYPVDDHHFKIILHYGTLVIDGVTPNMIDYFGRPYPGIAVFDGKQITVTGTLWNGNKIIDERLINPDGSLLFRVTINGVTGWRLCENILA
- Relative Luminescence Activity (%, Imax) Cell Extracts (CHO-K1 cells): 11.2%
- Relative Luminescence Activity (%, Imax) Culture Medium (CHO-K1 cells): less than 0.01%
- Relative Luminescence Activity (Imax) Precipitate ([1]; Table 8, coelenterazine): 5.0
- Relative Luminescence Activity (Imax) Supernatant ([1]; Table 8, coelenterazine): 71
- Luminescence activity in the supernatants, fold higher as compared to the wild KAZ [1]: 71 fold

B7: KAZ: wild 19 kDa catalytic protein of Oplophorus luciferase (19kOLase), amino acid sequence SEQ ID NO: 2 (protein, listed as Oplophorus gracilirostris)
chain: FTLADFVGDWQQTAGYNQDQVLEQGGLSSLFQALGVSVTPIQKVVLSGENGLKADIHVIIPYEGLSGFQMGLIEMIFKVVYPVDDHHFKIILHYGTLVIDGVTPNMIDYFGRPYPGIAVFDGKQITVTGTLWNGNKIYDERLINPDGSLLFRVTINGVTGWRLCENILA
- Relative Luminescence Activity (Imax) (%) Cell Extracts (CHO-K1 cells): 0.1%
- Relative Luminescence Activity (Imax) (%) Culture Medium (CHO-K1 cells): less than 0.01%
- Relative Luminescence Activity (%, Imax) Cell Extracts (CHO-K1 cells): 0.3%
- Relative Luminescence Activity (%, Imax) Culture Medium (CHO-K1 cells): less than 0.01%
- Relative Luminescence Activity (Imax) Precipitate ([1]; Table 3, 0.5 μg coelenterazine): 0.1
- Relative Luminescence Activity (Imax) Supernatant ([1]; Table 3, 0.5 μg coelenterazine): 1.0
- Relative Luminescence Activity (Imax) Precipitate ([1]; Table 8, coelenterazine): 0.1
- Relative Luminescence Activity (Imax) Supernatant ([1]; Table 8, coelenterazine): 1.0

B8: KAZ-V44I-A54I: KAZ mutant with two amino acid substitutions V44I and A54I, SEQ ID NO: 10 (protein)
chain: FTLADFVGDWQQTAGYNQDQVLEQGGLSSLFQALGVSVTPIQKIVLSGENGLKIDIHVIIPYEGLSGFQMGLIEMIFKVVYPVDDHHFKIILHYGTLVIDGVTPNMIDYFGRPYPGIAVFDGKQITVTGTLWNGNKIYDERLINPDGSLLFRVTINGVTGWRLCENILA
- Relative Luminescence Activity (%, Imax) Cell Extracts (CHO-K1 cells): 13.9%
- Relative Luminescence Activity (%, Imax) Culture Medium (CHO-K1 cells): 0.07%
- Relative Luminescence Activity (Imax) Precipitate ([1]; Table 8, coelenterazine): 5.8
- Relative Luminescence Activity (Imax) Supernatant ([1]; Table 8, coelenterazine): 295
- Luminescence activity in the supernatants, fold higher as compared to the wild KAZ [1]: 295 fold
